Laboratory results taken from publication PMC3922912, “Structural basis of stereospecific reduction by quinuclidinone reductase” (AMB Express, 2014).

Experiments:
[1] = biological target: T1, NADPH-dependent 3-quinuclidinone reductase (RrQR) (Rhodotorula mucilaginosa, UniProt B9ZZZ6); test: X-ray crystal structure, […] Å; assay type: binding; conditions: crystals grown at 278 K, CHES pH 10.0, PEG8000; one NADPH per protomer
T1 construct: gene rqr; homotetramer; crystal model residues 7-272, residues 1-6 disordered

O=C1CN2CCC1CC2 = test: purified protein; assay type: biochemical, Rhodotorula mucilaginosa; conditions: 350 μM NADPH, 200 mM potassium phosphate pH 7.0, 37°C, substrate as HCl salt
[2] = biological target: NADPH-dependent 3-quinuclidinone reductase (RrQR) from Rhodotorula rubra (Rhodotorula rubra); test: crystal structure; RrQR in complex with NADPH; crystals grown at 278 K, sitting-drop vapor diffusion, 100 mM CHES (pH 10.0), 30% PEG8000, 3% sucrose; four protomers in the asymmetric unit; 2.2 Å

## NC(=O)C1=CN([C@@H]2O[C@H](COP(=O)(O)OP(=O)(O)OC[C@H]3O[C@@H](n4cnc5c(N)ncnc54)[C@H](OP(=O)(O)O)[C@@H]3O)[C@@H](O)[C@H]2O)C=CC1 [NADPH]
[1]
  X-ray crystal structure, 2.2 Å: A clear electron density for NADPH is observed in each protomer

## NADPH-dependent 3-quinuclidinone reductase (RrQR) (Rhodotorula mucilaginosa; N173A)
O=C1CN2CCC1CC2
  Km: 100 mM
  Vmax: 11.6 µmol/min/mg
  kcat: 5.62 s⁻¹

## NADPH-dependent 3-quinuclidinone reductase (RrQR) from Rhodotorula rubra (enzyme)
[2]
  stoichiometry N: 4
